# In US20070010433A1, “Use of compounds capable of inhibiting the proteolytic processing of semaphorins for prevention, treatment, diagnosis and prognosis of an invasive disease” (SEMA APS, priority 2002, published 2007):
# B1: Sema3E: wild-type full-length mouse Sema3E (SEQ ID NO: 1) expressed in 168FARN cells (protein, listed as Mus sp.)
# chain: MAPAGHILTLLLWGHLLELWTPGHSANPSYPRLRLSHKELLELNRTSIFQSPLGFLDLHTMLLDEYQERLFVGGRDLVYSLNLERVSDGYREIYWPSTAVKVEECIMKGKDANECANYIRVLHHYNRTHLLTCATGAFDPHCAFIRVGHHSEEPLFHLESHRSERGRGRCPFDPNSSFVSTLVGNELFAGLYSDYWGRDSAIFRSMGKLGHIRTEHDDERLLKEPKFVGSYMIPDNEDRDDNKMYFFFTEKALEAENNAHTIYTRVGRLCVNDMGGQRILVNKWSTFLKARLVCSVPGMNGIDTYFDELEDVFLLPTRDPKNPVIFGLFNTTSNIFRGHAVCVYHMSSIREAFNGPYAHKEGPEYHWSLYEGKVPYPRPGSCASKVNGGKYGTTKDYPDDAIRFARIDPLMYQPIKPVHKKPILVKTDGKYNLRQLAVDRVEAEDGQYDVLFIGTDTGIVLKVITIYNQETEWMEEVILEELQIFKDPAPIISMEISSKRQQLYIGSASAVAQVRFHHCDMYGSACADCCLARDPYCAWDGISCSRYYPTGAHAKRRFRRQDVRHGNAAQQCFGQQFVGDALDRTEERLAYGIESNSTLLECTPRSLQAKVIWFYQKGRDVRKEEVKTDDRVVKMDLGLLFLRVRKSDAGTYFCQTVEHNFVHTVRKITLEVVEEHKVEGMFHKDHEEERHHKMPCPPLSGMSQGTKPWYKEFLQLIGYSNFQRVEEYCEKVWCTDKKRKKLKMSPSKWKYANPQEKRLRSKAEHFRLPRHTLLS
# B2: p87:p87-Sema3E dimer: dimer of full-length p87-Sema3E purified from medium of transfected COS-7 cells (protein, UniProt O15041 1-775, looked up)
# chain: MASAGHIITLLLWGYLLELWTGGHTADTTHPRLRLSHKELLNLNRTSIFHSPFGFLDLHTMLLDEYQERLFVGGRDLVYSLSLERISDGYKEIHWPSTALKMEECIMKGKDAGECANYVRVLHHYNRTHLLTCGTGAFDPVCAFIRVGYHLEDPLFHLESPRSERGRGRCPFDPSSSFISTLIGSELFAGLYSDYWSRDAAIFRSMGRLAHIRTEHDDERLLKEPKFVGSYMIPDNEDRDDNKVYFFFTEKALEAENNAHAIYTRVGRLCVNDVGGQRILVNKWSTFLKARLVCSVPGMNGIDTYFDELEDVFLLPTRDHKNPVIFGLFNTTSNIFRGHAICVYHMSSIRAAFNGPYAHKEGPEYHWSVYEGKVPYPRPGSCASKVNGGRYGTTKDYPDDAIRFARSHPLMYQAIKPAHKKPILVKTDGKYNLKQIAVDRVEAEDGQYDVLFIGTDNGIVLKVITIYNQEMESMEEVILEELQIFKDPVPIISMEISSKRQQLYIGSASAVAQVRFHHCDMYGSACADCCLARDPYCAWDGISCSRYYPTGTHAKRRFRRQDVRHGNAAQQCFGQQFVGDALDKTEEHLAYGIENNSTLLECTPRSLQAKVIWFVQKGRETRKEEVKTDDRVVKMDLGLLFLRLHKSDAGTYFCQTVEHSFVHTVRKITLEVVEEEKVEDMFNKDDEEDRHHRMPCPAQSSISQGAKPWYKEFLQLIGYSNFQRVEEYCEKVWCTDRKRKKLKMSPSKWKYANPQEKKLRSKPEHYRLPRHTLDS
# modifications: full-length dimer
# notes: dimer of full-length p87-Sema3E purified from medium of transfected COS-7 cells
# B3: p61-Sema3E: 1-560 amino acid fragment of Sema3E, 61 kDa truncated isoform from furin cleavage (SEQ ID NO: 3) (protein, listed as Mus sp.)
# chain: MAPAGHILTLLLWGHLLELWTPGHSANPSYPRLRLSHKELLELNRTSIFQSPLGFLDLHTMLLDEYQERLFVGGRDLVYSLNLERVSDGYREIYWPSTAVKVEECIMKGKDANECANYIRVLHHYNRTHLLTCATGAFDPHCAFIRVGHHSEEPLFHLESHRSERGRGRCPFDPNSSFVSTLVGNELFAGLYSDYWGRDSAIFRSMGKLGHIRTEHDDERLLKEPKFVGSYMIPDNEDRDDNKMYFFFTEKALEAENNAHTIYTRVGRLCVNDMGGQRILVNKWSTFLKARLVCSVPGMNGIDTYFDELEDVFLLPTRDPKNPVIFGLFNTTSNIFRGHAVCVYHMSSIREAFNGPYAHKEGPEYHWSLYEGKVPYPRPGSCASKVNGGKYGTTKDYPDDAIRFARIDPLMYQPIKPVHKKPILVKTDGKYNLRQLAVDRVEAEDGQYDVLFIGTDTGIVLKVITIYNQETEWMEEVILEELQIFKDPAPIISMEISSKRQQLYIGSASAVAQVRFHHCDMYGSACADCCLARDPYCAWDGISCSRYYPTGAHAKRRFRR
# Key:
# [1] = tested on: PC12E2 cells; assay: Neurite outgrowth from PC12E2 cells; assay type: cell-based; conditions: for stimulatory effect on neurite outgrowth: chromatographic fractions of COS-7 conditioned medium, 48 h, compared to negative control (conditioned medium from COS-7 cells without Sema3E proteins)
# Description: Conditioned medium from COS-7 cells stably transfected with full-length Sema3E was collected and fractionated using heparin-sepharose affinity chromatography and consequent size-exlusion fractionation. Fractions containing different isoforms of Sema3E were collected and tested for neuritogenic activity.
# PC12E2 cells were plated on poly-L-lysine coated 48-well plates (Costar) (5,000 cells/well) and grown overnight in DME/F12 medium supplemented with 5% foetal calf serum (FCS) and 10% horse serum (HS) at 37 C°, 5% CO2. The chromatographic fractions were dialyzed against DME/F12 medium without serum, protein concentration was adjusted to 10 μg/ml, and diluted 1:1 in conditioned medium collected from non-transfected COS-7 cells grown for 72 h in serum free DME/F12 medium. PC12E2 cells were incubated with samples of different Sema3E fractions for 48 h, afterwards cells were fixed with 11% glutaraldehyde in PBS, washed in PBS and stained with 0.1% crystal violet in 20% methanol, and neurite outgrowth was quantified. […] A neurite outgrowth index was calculated in each experiment dividing the percentage of neurite outgrowth index in the test sample by the percentage of neurite outgrowth index in response to conditioned medium from COS7 cells without Sema3E proteins (negative control). Other controls were: nerve growth factor (NGF), tested at concentration 500 ng/ml (positive control), and non-fractionated conditioned medium from COS-7 cells expressing full-length Sema3E, tested at concentration 50 μg total protein/mi. Activity was defined as the index divided by 2.
# The truncated p61 isoform of Sema3E was further expressed as recombinant protein ([…]) in Pichia pastoris as described above, purified using Ni2+ affinity chromatography and tested in a neurite outgrowth assay described above. […] NGF at (positive control, 125 ng/ml) stimulated neurite outgrowth up to 40%.
# [2] = tested on: SVEC4-10 cells; assay: Endothelial cell motility in blindwell chambers (SVEC4-10); assay type: cell-based, mouse; conditions: for cell-motility-stimulating activity of purified Sema3E isoform fractions: fractions from heparin-sepharose and size-exclusion chromatography of COS-7 medium
# Description: 200.000 endothelial mouse lymph nodes SVEC4-10 cells were suspended either in serum free DME/F12 (1:1) medium containing 25 mM Hepes pH 7.4, 0.1% BSA and D-glucose, or conditioned medium collected from cells expressing different Sema3E constructs and were loaded in the top compartments of blindwell chambers. The cells were left to adhere to fibronectin-coated polycarbonate filters within 3 h after seeding, and allowed to migrate through the pores of the filters in the next 3-6 h. Conditioned media from Sema3E or mock transfected 168FARN cells and COS-7 cells transfected with a pcDNA3.1: LacZ were used to examine the effect of the presence of Sema3E in the medium on endothelial cell motility. Migration of SVEC4-10 cells was evaluated after 5 h exposure to the conditioned media with or without Sema3E.
# The full-length Sema3E expressed in cells can give a raise to several naturally occurring isoforms of Sema3E, such as for example the truncated p61-Sema3E, a full-length p87-Sema3E, or a dimer p87:p87-Sema3E. The effect of different isoforms of Sema3E on cell motility was studied by using the isoforms purified from conditioned medium collected from tranfected COS-7 cells in the assay described above. The proteins were purified by heparin-sepharose affinity chromatography with following size-exclusion chromatography. All fractions collected from the size-exclusion column were tested for the presence of cell-motility-stimulating activity.
# [3] = tested on: 168FARN mouse tumor cells colonising the lungs; assay: Experimental lung metastasis assay with transfected 168FARN cells; assay type: in vivo, Balb/c mice
# Description: Non-metastatic 168FARN mouse tumor cells were stably transfected with the pcDNA3.1(−)/zeo^R vector encoding a wild-type Sema3E, or mock transfected with the empty vector as described above. Two clones expressing secreted Sema3E, 168FARN: 2s and 168FARN: 14, and a mock transfected clone, 168FARN: 16 were tested for their ability to colonise the lungs in the experimental metastasis assay as described previously (Christensen et al, 1998, Cancer Res 58:1238-44). Briefly, 10^5 cells were injected in the tail vein of female Balb/c mice (age 8-9 weeks). 4 weeks later the lungs were examined for tumor growth.
# 168FARN cells were stably transfected with constructs encoding 1-560 amino acid fragment of the sequence Sema3E, which corresponds to 61 kDa fragment of Sema3E (p61-Sema3E), a full-length Sema3E mutated on KRRFRR site (Sema3E(−) (+)myc), and a wild-type full-length Sema3E as described above, and stable clones expressing the proteins were injected to mice to induce the experimental metastasis. 10^5 cells of each clone expressing different constructs were injected into the tail vein of female Balb/c mice. After 24 days the lungs were excised, weighted and scored for the presence of visible lung tumors. The p61-Sema3E clones (two groups: clone#1, n=8; clone#5, n=6) were highly aggressive compared to a control group (injected with the cells expressing a secreted alkaline phosphatase (AP)), showing an increase in overall lung weight at about 300%.
# [4] = tested on: SVEC4-10 endothelial cells; assay: 3D co-culture of SVEC4-10 and 168FARN aggregates in matrigel; assay type: cell-based, mouse; conditions: co-culture with transfected 168FARN aggregates 3-5 mm apart, 7 days
# Description: 100,000 cells in 10 μl were aggregated by incubation in a hanging drop at 37° C. for 4 h. The aggregates were moved onto a layer of solidified ECM gel (matrigel) so, that SVEC4-10 aggregates were placed 3-5 mm apart from the aggregates of 168FARN:AP (clone#3, control clone expressing AP), or 168FARN:p61-Sema3E (clone#5, expressing the non-tagged p61-sema3E isoform), or 168FARN:AP-p61-Sema3E (done#5, expressing the AP-tagged p61 isoform). Another layer of matrigel was added on the top of the aggregates. After 7 days of incubation aggregates were examined for invasive growth.
molecule,measurement,setting,value
"NGF: nerve growth factor, positive control [reference compound]",stimulation of neurite outgrowth,"[1]; positive control, 125 ng/ml",up to 40%
heparin [reference compound],response of SVEC4-10 cells to p61-Sema3E-MH in presence of soluble heparin,[2]; heparin in the medium at 1-10 μg/ml,decreased the response of SVEC4-10 cells to the p61 -Sema3E-MH to the basal level
B1,increase of overall weight of the lungs,"[3]; 10^5 168FARN cells expressing wild-type Sema3E, tail vein, 4 weeks",300%
same,lung colonisation / visible lung tumors,"[3]; 168FARN clones 2s and 14 expressing secreted Sema3E, 4 weeks, versus parental or mock transfected cells",colonized the lungs and produced large tumors
B2,stimulatory effect on neurite outgrowth,[1],28-35%
same,cell-motility-stimulating activity of purified Sema3E isoform fractions,[2],failes to stimulate motility
B3,invasive growth of SVEC4-10 endothelial cells,[4],invasion of SVEC4-10 endothelial cells was observed
same,stimulatory effect on neurite outgrowth,[1],24-39%
same,cell-motility-stimulating activity of purified Sema3E isoform fractions,[2],attractive for SVEC4-10 cells
same,increase in overall lung weight,"[3]; 168FARN clones #1 and #5, 10^5 cells tail vein, 24 days, versus control cells expressing secreted alkaline phosphatase (AP)",about 300%
same,lung weight versus groups with mutated Sema3E(−)(+)myc,"[3]; 168FARN clones, 24 days, compared to Sema3E(−)(+)myc clones #14 and #6",double increase
